For the assay, the target named is ZIKV sE (strain PF13) (Zika virus, strain PF13). Description: SEC-MALS.

From doi:10.1101/2022.12.06.519383 come the findings set out here.

Broadly, the stoichiometry N is the number of molecules, sites or subunits per partner or assembly.

“ZIKV sE (strain PF13) (domain or fragment)” gave a stoichiometry N of 2.
